Target: recombinant His-Mdm2 (UniProt P23804 1-489)
Assay: pull-down

Sequence of recombinant His-Mdm2 (P23804 whole entry): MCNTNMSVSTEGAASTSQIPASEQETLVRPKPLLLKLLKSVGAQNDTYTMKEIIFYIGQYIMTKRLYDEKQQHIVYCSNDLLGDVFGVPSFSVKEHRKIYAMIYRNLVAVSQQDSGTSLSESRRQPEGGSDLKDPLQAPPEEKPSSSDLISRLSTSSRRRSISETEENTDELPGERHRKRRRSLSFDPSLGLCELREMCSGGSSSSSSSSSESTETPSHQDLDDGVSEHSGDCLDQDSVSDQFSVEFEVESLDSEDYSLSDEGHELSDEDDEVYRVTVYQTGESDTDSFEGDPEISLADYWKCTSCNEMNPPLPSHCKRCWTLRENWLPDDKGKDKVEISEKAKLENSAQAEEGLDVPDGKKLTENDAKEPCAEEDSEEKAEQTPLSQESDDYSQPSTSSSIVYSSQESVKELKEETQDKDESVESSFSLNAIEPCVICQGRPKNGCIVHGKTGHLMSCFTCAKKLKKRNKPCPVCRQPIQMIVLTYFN

stoichiometry N: ~1
B1: recombinant GST-EF1α (natural protein)
chain: GKEKTHINIVVIGHVDSGKSTTTGHLIYKCGGIDKRTIEKFEKEAAEMGKGSFKYAWVLDKLKAERERGITIDISLWKFETSKYYVTIIDAPGHRDFIKNMITGTSQADCAVLIVAAGVGEFEAGISKNGQTREHALLAYTLGVKQLIVGVNKMDSTEPPYSQKRYEEIVKEVSTYIKKIGYNPDTVAFVPISGWNGDNMLEPSANMPWFKGWKVTRKDGNASGTTLLEALDCILPPTRPTDKPLRLPLQDVYKIGGIGTVPVGRVETGVLKPGMVVTFAPVNVTTEVKSVEMHHEALSEALPGDNVGFNVKNVSVKDVRRGNVAGDSKNDPPMEAAGFTAQVIILNHPGQISAGYAPVLDCHTAHIACKFAELKEKIDRRSGKKLEDGPKFLKSGDAAIVDMVPGKPMCVESFSDYPPLGRFAVRDMRQTVAVGVIKAVDKKAAGAGKVTKSAQKAQKAK

Source: publication PMC3530171 (Cell, 2012)
